Literature values in PMC3347567.

Biological target: PEDF-R (Homo sapiens) (UniProt Q96AD5)
UniProt Q96AD5, sequence (Q96AD5 whole entry): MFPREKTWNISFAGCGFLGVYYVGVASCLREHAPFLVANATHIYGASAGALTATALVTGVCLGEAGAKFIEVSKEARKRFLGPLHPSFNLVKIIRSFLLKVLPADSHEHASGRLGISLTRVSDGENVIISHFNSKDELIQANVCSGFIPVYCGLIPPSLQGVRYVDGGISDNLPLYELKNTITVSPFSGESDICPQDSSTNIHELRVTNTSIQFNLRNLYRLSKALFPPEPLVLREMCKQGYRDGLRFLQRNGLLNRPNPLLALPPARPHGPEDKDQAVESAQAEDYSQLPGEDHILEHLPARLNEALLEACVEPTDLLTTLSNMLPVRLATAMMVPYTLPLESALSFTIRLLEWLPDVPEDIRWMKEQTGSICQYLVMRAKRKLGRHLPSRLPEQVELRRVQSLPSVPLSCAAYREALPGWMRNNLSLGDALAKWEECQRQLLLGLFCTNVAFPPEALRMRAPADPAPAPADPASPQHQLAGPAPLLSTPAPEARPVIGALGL

Kd: 3.03 nM
Substance: PEDF (from UniProt P36955)
